This note sets out measurements from article PMC2950890 (Nature structural & molecular biology, 2010).

The target of the assay is T1, Escherichia coli RecB (E. coli, UniProt P08394 1-1180).
T1 sequence: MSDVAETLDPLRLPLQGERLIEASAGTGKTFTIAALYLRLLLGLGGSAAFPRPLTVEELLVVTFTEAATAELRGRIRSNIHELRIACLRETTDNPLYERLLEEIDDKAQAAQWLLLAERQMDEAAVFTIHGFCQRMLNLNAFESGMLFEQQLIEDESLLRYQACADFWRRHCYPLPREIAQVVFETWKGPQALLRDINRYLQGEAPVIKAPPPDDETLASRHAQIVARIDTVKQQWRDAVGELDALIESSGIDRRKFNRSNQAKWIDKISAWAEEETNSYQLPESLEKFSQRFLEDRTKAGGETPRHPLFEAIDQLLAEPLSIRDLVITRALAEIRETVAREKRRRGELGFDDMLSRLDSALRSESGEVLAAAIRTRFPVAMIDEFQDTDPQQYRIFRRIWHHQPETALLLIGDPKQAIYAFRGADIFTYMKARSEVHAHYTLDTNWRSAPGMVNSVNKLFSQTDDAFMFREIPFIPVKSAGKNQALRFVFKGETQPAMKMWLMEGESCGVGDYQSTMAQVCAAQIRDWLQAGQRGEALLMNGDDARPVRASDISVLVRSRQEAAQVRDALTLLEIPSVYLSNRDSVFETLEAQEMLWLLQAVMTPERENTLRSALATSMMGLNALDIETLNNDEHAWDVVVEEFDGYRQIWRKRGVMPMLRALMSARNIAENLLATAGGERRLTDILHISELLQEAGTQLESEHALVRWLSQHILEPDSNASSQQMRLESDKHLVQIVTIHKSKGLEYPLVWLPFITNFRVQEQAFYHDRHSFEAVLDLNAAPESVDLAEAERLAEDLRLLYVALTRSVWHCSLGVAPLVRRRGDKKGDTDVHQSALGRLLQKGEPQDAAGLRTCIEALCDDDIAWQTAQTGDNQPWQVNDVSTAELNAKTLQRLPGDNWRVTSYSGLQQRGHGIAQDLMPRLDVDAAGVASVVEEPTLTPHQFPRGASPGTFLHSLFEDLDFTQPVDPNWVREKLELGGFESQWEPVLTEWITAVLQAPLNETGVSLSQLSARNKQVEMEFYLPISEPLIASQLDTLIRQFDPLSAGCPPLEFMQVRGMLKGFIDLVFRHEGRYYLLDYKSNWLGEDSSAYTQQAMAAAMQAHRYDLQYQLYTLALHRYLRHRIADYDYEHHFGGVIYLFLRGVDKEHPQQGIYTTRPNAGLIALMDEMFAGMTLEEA
Nature of the assay: reconstitution of the complex from separately purified subunits.

B1: Escherichia coli RecC (natural protein)
chain: MLRVYHSNRLDVLEALMEFIVERERLDDPFEPEMILVQSTGMAQWLQMTLSQKFGIAANIDFPLPASFIWDMFVRVLPEIPKESAFNKQSMSWKLMTLLPQLLEREDFTLLRHYLTDDSDKRKLFQLSSKAADLFDQYLVYRPDWLAQWETGHLVEGLGEAQAWQAPLWKALVEYTHQLGQPRWHRANLYQRFIETLESATTCPPGLPSRVFICGISALPPVYLQALQALGKHIEIHLLFTNPCRYYWGDIKDPAYLAKLLTRQRRHSFEDRELPLFRDSENAGQLFNSDGEQDVGNPLLASWGKLGRDYIYLLSDLESSQELDAFVDVTPDNLLHNIQSDILELENRAVAGVNIEEFSRSDNKRPLDPLDSSITFHVCHSPQREVEVLHDRLLAMLEEDPTLTPRDIIVMVADIDSYSPFIQAVFGSAPADRYLPYAISDRRARQSHPVLEAFISLLSLPDSRFVSEDVLALLDVPVLAARFDITEEGLRYLRQWVNESGIRWGIDDDNVRELELPATGQHTWRFGLTRMLLGYAMESAQGEWQSVLPYDESSGLIAELVGHLASLLMQLNIWRRGLAQERPLEEWLPVCRDMLNAFFLPDAETEAAMTLIEQQWQAIIAEGLGAQYGDAVPLSLLRDELAQRLDQERISQRFLAGPVNICTLMPMRSIPFKVVCLLGMNDGVYPRQLAPLGFDLMSQKPKRGDRSRRDDDRYLFLEALISAQQKLYISYIGRSIQDNSERFPSVLVQELIDYIGQSHYLPGDEALNCDESEARVKAHLTCLHTRMPFDPQNYQPGERQSYAREWLPAASQAGKAHSEFVQPLPFTLPETVPLETLQRFWAHPVRAFFQMRLQVNFRTEDSEIPDTEPFILEGLSRYQINQQLLNALVEQDDAERLFRRFRAAGDLPYGAFGEIFWETQCQEMQQLADRVIACRQPGQSMEIDLACNGVQITGWLPQVQPDGLLRWRPSLLSVAQGMQLWLEHLVYCASGGNGESRLFLRKDGEWRFPPLAAEQALHYLSQLIEGYREGMSAPLLVLPESGGAWLKTCYDAQNDAMLDDDSTLQKARTKFLQAYEGNMMVRGEGDDIWYQRLWRQLTPETMEAIVEQSQRFLLPLFRFNQS
As for B1, the binding result is given as “binds”.
